Two molecules from PMC8726733 (mAbs, 2021) can be followed below.

Experiment [1] deals with biotinylated avitag-labeled canine CTLA4 (dog, UniProt Q9XSI1, biotin (biotinylated avitag)). Nature of the experiment: ELISA. A general note: An ELISA detects its analyte on a solid surface through an enzyme-linked reagent.
Experiment [2] concerns the target feline CTLA4 of feline CD5+ leucocytes (Felis catus, endogenous; allele not …, UniProt Q9XSY7). Nature of the experiment: flow cytometry on cells. A general note: A flow cytometer gives signals particle by particle.

Sequence of biotinylated avitag-labeled canine CTLA4 (Q9XSI1 36-161): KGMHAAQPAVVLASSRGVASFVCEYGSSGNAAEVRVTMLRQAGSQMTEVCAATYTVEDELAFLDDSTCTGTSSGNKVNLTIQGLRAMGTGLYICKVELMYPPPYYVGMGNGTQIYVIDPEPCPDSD

B1: A1 soluble canine anti-cCTLA4 scFv (scFv, V domains shown)
VH: EVQLVESGGDLVKPAGSLRLSCVASGFSFSSYAMNWVRQAPGKGLQWIAGINSGGSSTSHIDAIKGRFTISRDNAKNTLYLQMNSLRAEDTAVYYCAISNWAYWGQGTLVTVSS
VL: QAVLNQPASVSGSLGQRVTISCTGSSSDIGKSYVAWYQQLPGTGPRTLINVDGNRASGVPDRFSVSRSGNTATLTISGLQAEDEADYHCSSWDWSLHTYVFGSGTQLTIL
Take B1: in experiment [1], the binding result is given as “binds”.

B2: A1mut2 fully canine IgGA (antibody, V domains shown)
VH: EVQLVETGGDLVKPGGSLRLSCVASGFSFSSYAMNWVRQAPEKGLQLVGGINSGGSSTYYTDAVKGRFTISRDNAKNTVYLQMNSLRAEDTAVYYCAISNWAYWGQGTLVTVSS
VL: QAVLNQPASVSGSLGQRVTISCTGSSSDIGKSYVAWYQQLPGTGPRTLINVDGNRASGVPDRFSVSRSGNTATLTISGLQAEDEADYHCSSWDWSLHTYVFGSGTQLTIL
Consider B2, for which the binding result in experiment [2] is reported as “binds”.
